According to patent publication US20060110769A1, “Regulation of novel human prolyl 4-hydroxylases” (Bayer Aktiengesellschaft, priority 2001, published 2006):

Molecular target: mouse hypoxia inducible factor-1 alpha (mouse) (UniProt Q61221)
Assay: cell-based or functional assay

Sequence of mouse hypoxia inducible factor-1 alpha (mouse) (Q61221 whole entry): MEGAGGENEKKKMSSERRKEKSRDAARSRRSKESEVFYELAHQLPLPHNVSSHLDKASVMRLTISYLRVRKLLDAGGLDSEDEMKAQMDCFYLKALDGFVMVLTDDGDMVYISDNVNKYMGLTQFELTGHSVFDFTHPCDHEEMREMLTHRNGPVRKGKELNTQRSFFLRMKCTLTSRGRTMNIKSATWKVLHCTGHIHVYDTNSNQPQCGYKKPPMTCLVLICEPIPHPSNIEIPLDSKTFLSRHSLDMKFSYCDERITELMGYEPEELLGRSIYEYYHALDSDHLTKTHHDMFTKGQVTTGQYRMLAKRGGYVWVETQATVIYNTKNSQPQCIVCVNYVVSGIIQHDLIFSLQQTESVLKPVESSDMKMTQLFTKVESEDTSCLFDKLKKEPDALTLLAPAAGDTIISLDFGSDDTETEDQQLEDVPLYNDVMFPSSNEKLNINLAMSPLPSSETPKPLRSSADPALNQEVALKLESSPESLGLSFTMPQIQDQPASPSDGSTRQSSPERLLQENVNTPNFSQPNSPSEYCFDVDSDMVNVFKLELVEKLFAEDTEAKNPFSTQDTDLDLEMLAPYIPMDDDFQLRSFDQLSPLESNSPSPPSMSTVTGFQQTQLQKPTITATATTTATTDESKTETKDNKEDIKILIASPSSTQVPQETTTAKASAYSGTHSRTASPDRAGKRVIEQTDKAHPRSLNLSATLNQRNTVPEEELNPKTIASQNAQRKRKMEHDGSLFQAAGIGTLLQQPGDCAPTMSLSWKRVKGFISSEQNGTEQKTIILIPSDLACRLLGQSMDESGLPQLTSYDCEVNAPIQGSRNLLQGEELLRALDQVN

Substance: EGLN3, human HIF-prolyl-hydroxylase (from UniProt Q9H6Z9 1-239)
- reduction of the transactivation activity of cotransfected HIF-1 alpha on the hypoxia responsive luciferase reporter (HEK/293 cells, equal amounts of each plasmid): 90%
